Measurements reported in article PMC7921410, “Structure of mammalian Mediator complex reveals Tail module architecture and interaction with a conserved core” (Nature Communications, 2021).

T1: MED16 (mouse (Mus musculus; endogenous in CH12), UniProt Q6PGF3 1-828)
T1 construct: MED16, Mus musculus, endogenous lower Tail subunit of Mediator; source: endogenous, CH12 mouse B lymphoma nuclear extract; immunopurified as part of Mediator (FLAG M2 agarose, FLAG peptide elution)
T1 sequence (looked up): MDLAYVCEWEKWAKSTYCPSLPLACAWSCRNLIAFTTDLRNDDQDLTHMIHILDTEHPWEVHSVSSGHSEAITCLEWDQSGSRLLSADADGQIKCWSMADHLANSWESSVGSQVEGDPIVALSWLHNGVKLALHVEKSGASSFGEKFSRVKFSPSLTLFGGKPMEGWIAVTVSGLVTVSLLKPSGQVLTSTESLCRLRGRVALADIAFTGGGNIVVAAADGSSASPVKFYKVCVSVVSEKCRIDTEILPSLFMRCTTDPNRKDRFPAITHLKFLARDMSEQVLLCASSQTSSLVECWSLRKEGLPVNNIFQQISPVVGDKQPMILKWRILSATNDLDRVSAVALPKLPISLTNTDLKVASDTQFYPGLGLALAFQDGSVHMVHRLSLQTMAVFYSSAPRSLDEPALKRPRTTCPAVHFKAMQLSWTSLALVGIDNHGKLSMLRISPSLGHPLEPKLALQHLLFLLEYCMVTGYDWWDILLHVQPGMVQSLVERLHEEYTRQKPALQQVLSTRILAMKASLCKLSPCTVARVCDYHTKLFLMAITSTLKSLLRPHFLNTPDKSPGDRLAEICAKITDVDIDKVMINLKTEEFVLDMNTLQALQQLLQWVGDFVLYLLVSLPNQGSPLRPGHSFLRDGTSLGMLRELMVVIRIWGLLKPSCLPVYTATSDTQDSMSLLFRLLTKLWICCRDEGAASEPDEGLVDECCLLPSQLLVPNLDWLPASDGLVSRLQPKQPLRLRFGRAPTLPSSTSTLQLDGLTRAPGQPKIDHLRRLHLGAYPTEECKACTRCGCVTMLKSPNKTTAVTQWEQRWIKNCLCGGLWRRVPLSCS


Molecular target: T1, MED16
Test: cryo-EM structure; endogenous mouse Mediator immunopurified from CH12 nuclear extract through 3×FLAG-MED19 or 3×FLAG-MED25; eluted in 50 mM HEPES pH 7.9, 100 mM KCl, 5% glycerol, 1 mM EDTA, 0.005% NP-40; map at 4.0 Å overall, focused refinement of the MED1 and knob/hook ends (6-10 Å)
Conditions: both partners purified

Row | binding result | Binder
1 | binds | MED25 (natural protein, mouse (Mus musculus; endogenous in CH12), UniProt Q8VCB2 1-745, looked up, MED25, Mus musculus, endogenous lower Tail subunit of Mediator; only the N-terminal von Willebrand domain (aa 15-216) is seen in the map; The 3×FLAG tag stands on MED25 only in the MED25-FLAG cell line; in the MED19-FLAG line MED25 is untagged; Images from the datasets were combined for the final map; also called MED25-FLAG; source: endogenous, CH12 mouse B lymphoma nuclear extract; …) MVPGSEGPARAGGLVADVVFVIEGTANLGPYFEELRKHYLLPAIEYFNGGPPAETDFGGDYGGTQYSLVVFNTVDCAPESYVQCHAPTSSAYEFVTWLDGIKFMGGGGESCSLIAEGLSTALQLFDDFKKMREQIGQTHRVCLLICNSPPYLLPAVESTTYSGCTTESLVQKIGERGIHFSIVSPRKLPALRLLFEKAAPPALLEPLQQPADVSQDPRHMVLVRGLVLPVGGSSTSGSLQTKQAVPLPPAPASAATLSAAPPQALPPVPPQYQVPGNLSAAQVAAQNAVEAAKSQKAGLGPRFSPINPLQQAAPGVGPPFSQAPAPPLAPVPPGAPKPPPASQPSLVSTVAPGPVLAAPAQPGAPSLAGTVTPGGVNGPSAAQLGGPALGGQQSVSNKLLAWSGVLEWQEKPKPASVDANTKLTRSLPCQVYVNHGENLKTEQWPQKLIMQLIPQQLLTTLGPLFRNSRMVQFHFTNKDLESLKGLYRIMGNGFAGCVHFPHTAPCEVRVLMLLYSSKKKIFMGLIPYDQSGFVNGIRQVITNHKQVQQQKLEQQRGMGAQQAPPVLGPILEEQARPPQNLLQLRAPQPQPQGAVGASAATGQPQPQGATQAPTGAPQGPPGAAPGPPPSGPILRPQNPGANPQLRSLLLNPAPPQTGVPPPQASLHHLQPPGAPTLLPPHQSMGQPQLGPQLLHPPPAQSWPTQLPQRAPLPGQMLLSGGPRGPVPQPGLQPSVMEDDILMDLI
2 | binds | MED15 (natural protein, mouse (Mus musculus; endogenous in CH12), UniProt Q924H2 1-789, looked up, MED15, Mus musculus, endogenous lower Tail subunit of Mediator; only the C-terminal portion (from residue 620) is seen in the map; source: endogenous, CH12 mouse B lymphoma nuclear extract; immunopurified as part of Mediator (FLAG M2 agarose, FLAG peptide elution)) MDVSGQETDWRSAAFRQKLVSQIEDAMRKAGVAHSKSSKDMESHVFLKAKTRDEYLSLVARLIIHFRDIHNKKSQASVSDPMNALQSLTGGPTPGAAGIGMPPRGPGQSLGGMGGLGAMGQPLPLSGQPPPGTSGMAPHGMAVVSTATPQTQLQLQQVALQQQQQQQQQQQFQQQQAALQQQQQQQQQQQQQQQFQAQQNAMQQQFQAVVQQQQLQQQQQQQHLIKLHHQSQQQQIQQQQLQRMAQLQLQQQQQQQQQQALQAQPPMQQPSMQQPQPPPSQALPQQLSQLHHPQHHQPPPQAQQSPIAQNQPPQIPPQSQSQPLVSQAQALPGPMLYAAQQQLKFVRAPMVVQQPQVQPQVQQVQPQVQPQAAVQAAQSAQMVAPGVQMIAEALAQGGMHVRARFPPTSTMSAGPSSSISLGGQPTTQVSQSSLTMLSSPSPGQQVQTPQSMPPPPQPSPQPGSQPNSNVSSGPAPSPSSFLPSPSPQPSQSPVTARTPQNFSVPSPGPLNTPVNPSSVMSPAGSSQAEEQQYLDKLKQLSKYIEPLRRMINKIDKNEDRKKDLSKMKSLLDILTDPSKRCPLKTLQKCEIALEKLKNDMAVPTPPPPPVLPTKQQDLCQPLLDAVLANIRSPVFNHSLYRTFVPAMMAIHGPPIVSPVVCSRKRRFEEDERQSIPNVLQGEVARLDPKFLVNLDPSHCSNNGTVHLICKLDDKDLPSVPPLELSVPADYPAQSPMWIDRQWQYDANPFLQSVHRCMTSRLLQLPDKHSVTALLNTWAQSIHQACLSAA
